Experimental data: patent US20170037149A1 (Amgen, published 2017)
Substitutions are numbered along the chain they refer to.

B1: FL-17 scFv (scFv)
scFv: QVTLKESGPTLVKPTETLTLTCTVSGFSLSNARMGVSWIRQPPGKALEWLANIFSNDEKSYSTSLKSRLTISKGTSKSQVVLTMTNVNPVDTGTYYCARIVGYGSGWYGYFDYWGQGTLVTVSSGGGGSGGGGSGGGGSDIQMTQSPSSLSASVGDRVTITCRASQDIRNDLGWYQQKPGKAPKRLIYATSIRQSGVPSRFTGSGSGTEFTLTISGLQPEDFATYFCLQHNSFPLTFGGGTKVEIK
notes: periplasmic prep
B2: FL-40 scFv (scFv)
scFv: B1 scFv with A46C, G239C
notes: periplasmic prep
B3: FL-7 scFv (scFv)
scFv: QVTLKESGPTLVKPTETLTLTCTVSGFSLNNARMGVSWIRQPPGKALEWLAHIFSNDEKSYSTSLKNRLTISKDSSKTQVVLTMTNVDPVDTATYYCARIVGYGTGWFGYFDYWGQGTQVTVSSGGGGSGGGGSGGGGSDIQMTQSPSSLSASVGDRVTITCRASQDIRTDLAWYQQKPGKAPKRLIYAASSLQSGVPSRFSGSGSGTEFTLTISSLQPEDFATYYCLQHNRYPLTFGGGTKVDIK
notes: periplasmic prep
B4: FL-18 scFv (scFv)
scFv: QVTLKESGPVLVKPTQTLTLTCTFSGFSLSNARMGVSWIRQPPGKALEWLAHIFSNDEKSFSTSLKNRLTISKDTSKSQVVLTMTNMDPVDTATYYCARMVGYGSGWYAYFDYWGQGTQVTVSSGGGGSGGGGSGGGGSDIQMTQSPSSLSASVGDRVTITCRASQSISSYLNWYQQKPGKAPKLLIYAASSLQSGVPSRFSGSGSGTDFTLTISSLQPEDFATYYCLQHNSYPLTFGGGTKVEIK
notes: periplasmic prep
B5: FL-41 scFv (scFv)
scFv: B4 scFv with A46C, G239C
notes: periplasmic prep
B6: FL-3 scFv (scFv)
scFv: QVTLKESGPALVKPTETLTLTCTVSGFSLSNARMAVSWIRQPPGKALEWLAHIFSNGEKSYSTSLKSRLTISKDTSKTQVVLTMTNTDPVDTATYFCARIVGYSDWLLPFDHWGQGIMVTVSSGGGGSGGGGSGGGGSDIQMTQSPSSLSASVGDRVTITCRASQNINRFLNWYQQKPGKAPKLLIYAASSLQSGVPSRFSGSGSGTDFTLTISSLQPEDFATYYCLQHNSYPWTFGQGTKVDIK
notes: periplasmic prep
B7: FL-8 scFv (scFv)
scFv: QVTLKESGPALVKPTETLTLTCTVSGFSLSYARMGVSWIRQPPGKALEWLAQIFSNDEKSYSTSLKSRLTISKGTSNSQVVLTMTNMDPEDTATYYCARIVGYGTGWYGFFDYWGQGILVTVSSGGGGSGGGGSGGGGSDIQMTQSPSSLSASVGDRVTITCRASQGIRNDLGWYQQKPGKAPKRLIYAASSLQSGVPSRFSGSGSGTEFTLTISSLQPEDFATYYCLQHNSYPLTFGGGTKVDIK
notes: periplasmic prep
B8: FL-2 scFv (scFv)
scFv: QVTLKESGPVLVKPTETLTLTCTVSGFSLRNARMGVSWIRQPPGKALEWLAHIFSNDEKTYSTSLKSRLTISRDTSKGQVVLTMTKMDPVDTATYYCARIPYYGSGSHNYGMDVWGQGTTVTVSSGGGGSGGGGSGGGGSDIQMTQSPSSLSASVGDRVTITCRASQDIRNDFGWYQQKPGKAPQRLLYAASTLQSGVPSRFSGSGSGTEFTLTISSLQPEDFATYYCLQYNTYPWTFGQGTKVEIK
notes: periplasmic prep
B9: FL-1 scFv (scFv)
scFv: QVTLKESGPVLVKPTETLTLTCTVSGFSLINARMGVSWIRQPPGKALEWLAHIFSNAEKSYRTSLKSRLTISKDTSKSQVVLTMTNMDPVDTATYYCARIPGYGGNGDYHYYGMDVWGQGTTVTVSSGGGGSGGGGSGGGGSDIQMTQSPSSLSASLGDRVTITCRASQGIRNDLGWYQQKPGKAPKRLIYASSTLQSGVPSRFSGSGSGTEFTLTISSLQPEDFATYYCLQHNNFPWTFGQGTKVEIK
notes: periplasmic prep

Molecular target: T1, human FLT3 (human, UniProt P36888 27-993)
T1 construct: On transfected CHO cells, or on the FLT3 positive human AML cell lines EOL-1 / MV4-11 where the row says so; also called hu FLT3; full length human FLT3
Assay: FACS, scFv on CHO-human FLT3 pre-incubated with FLT3 ligand (competitor)
Description: The detection was performed using mouse anti-FLAG+PE-conjugated goat anti-mouse and the Fluorescence median detected by FACS (median (+ligand)/median (w/o ligand)*100%)
Afterwards cells were not washed but directly stained with FLT3 binder (scFv's). […] As negative control, cells were incubated with an unspecific scFv instead of FLT3 scFv.
For the evaluation of the data, the fluorescence median was detected by FACS.

median [+ligand]/median [w/o ligand]*100 [%] | Binder
≥ 75 | B1
≥ 75 | B2
≥ 75 | B3
≥ 75 | B4
≥ 75 | B5
≥ 75 | B6
≥ 75 | B7
≥ 75 | B8
≥ 75 | B9
